Results: publication PMC11697037, “Structural insights into the regulation of monomeric and dimeric apelin receptor” (Nature Communications, 2025)

Experiments:
[1] = biological target: the molecule itself; test: cryo-EM structure; JN241-9-APJR complex, APJR and JN241-9 co-expressed in Hi5 cells (1:1 virus ratio), co-purified without added ligand; no Gi
[2] = biological target: T1, human WT APJR (apelin receptor), cryo-EM construct with a deletion of 50 residues from the C-terminus (human, UniProt P35414); test: cryo-EM structure; purified APJR (LMNG/CHS) incubated 1 h at 4 °C with 125 µg JN241(-Fc), SEC in 20 mM HEPES pH 7.5, 100 mM NaCl; no Gi; conditions: both partners purified
T1 construct: The N-terminal fusion is HA signal peptide, Flag tag, 10x His tag and BRIL, in pFastBac1; No cleavage of the fusion is mentioned; The protein is seen both as a monomer and as a homodimer; also called ProtA; ProtB; source: Trichoplusia ni (Hi5) insect cells, baculovirus; alone or co-expressed with Gi and/or JN241-9; purified (LMNG/CHS, Talon resin, SEC); not shown: His10, N-terminal, kept

[3] = biological target: T1, human WT APJR (apelin receptor), …; test: cryo-EM 2D classification; JN241-APJR complex with the Fc tag removed from the sdAb; data quality insufficient for a high-resolution structure; conditions: both partners purified

B1: human WT APJR (apelin receptor), cryo-EM construct with a deletion of 50 residues from the C-terminus (receptor, UniProt P35414 1-330, looked up)
chain: MEEGGDFDNYYGADNQSECEYTDWKSSGALIPAIYMLVFLLGTTGNGLVLWTVFRSSREKRRSADIFIASLAVADLTFVVTLPLWATYTYRDYDWPFGTFFCKLSSYLIFVNMYASVFCLTGLSFDRYLAIVRPVANARLRLRVSGAVATAVLWVLAALLAMPVMVLRTTGDLENTTKVQCYMDYSMVATVSSEWAWEVGLGVSSTTVGFVVPFTIMLTCYFFIAQTIAGHFRKERIEGLRKRRRLLSIIVVLVVTFALCWMPYHLVKTLYMLGSLLHWPCDFDLFLMNIFPYCTCISYVNSCLNPFLYAFFDPRFRQACTSMLCCGQSR
notes: The N-terminal fusion is HA signal peptide, Flag tag, 10x His tag and BRIL, in pFastBac1; No cleavage of the fusion is mentioned; The protein is seen both as a monomer and as a homodimer; also called ProtA; ProtB; source: Trichoplusia ni (Hi5) insect cells, baculovirus; alone or co-expressed with Gi and/or JN241-9; purified (LMNG/CHS, Talon resin, SEC); not shown: His10, N-terminal, kept
[1]
  binding result: binds

B2: JN241-Fc, antagonistic single-domain antibody (sdAb) JN241 with Fc tag (VHH)
VHH: QVQLVESGGGSVQSGGSLTLSCAASGSTYSSHCMGWFRQAPGKEREGVALMTRSRGTSYADSVKGRFTISQDNTKNILYLQMNSLKPEDTAMYYCAAVPRAGIESGAYCKWNMKDSGSWGQGTQVTVSS
notes: the model of the JN241-APJR complex deposited here (PDB 8XQJ) holds this chain; also called antagonistic antibody; sdAb antagonist; source: provided by Structure Therapeutics
[2]
  binding result: binds

B3: JN241 with the Fc tag removed (VHH)
VHH: B2 VHH
notes: as the VHH of m4; PDB 8XQJ holds the JN241 chain; also called sdAb; source: Fc tag removed
[3]
  binding result: binds
